According to article PMC8329713, “The identification and structural analysis of potential 14-3-3 interaction sites on the bone regulator protein Schnurri-3” (Acta Crystallographica. Section F, Structural Biology …, 2021):
Non-standard residues stand in square brackets, D forms with d. No end group written: not given here. *: point of attachment. FITC = O=C1OC2(c3ccc(O)cc3Oc3cc(O)ccc32)c2ccc(NC(=S)*)cc21; pS = N[C@@H](COP(=O)(O)O)C(=O)O; Ahx = NCCCCCC(=O)O

Assays:
Assay in all cases: fluorescence polarisation; 14-3-3 isoforms (full length) serially diluted twofold in the presence of 10 nM FITC-labelled peptide; 50 mM Tris pH 7.5, 150 mM NaCl, 5 mM MgCl2, 0.05% Tween-20 (no reducing agent listed); one-site specific binding model
Conditions in all cases: both partners purified
14-3-3ɛ (full length) = biological target: T1, 14-3-3ɛ (full length) (human, UniProt P62258 1-255)
T1 construct: 14-3-3 protein epsilon, human, full length; Expressed from a pPRoeX-Htb vector; also called 14-3-3 isoform ɛ; source: E. coli NiCo21(DE3), purified (nickel column, TEV cleavage, second nickel column, SEC)
T1 sequence (looked up): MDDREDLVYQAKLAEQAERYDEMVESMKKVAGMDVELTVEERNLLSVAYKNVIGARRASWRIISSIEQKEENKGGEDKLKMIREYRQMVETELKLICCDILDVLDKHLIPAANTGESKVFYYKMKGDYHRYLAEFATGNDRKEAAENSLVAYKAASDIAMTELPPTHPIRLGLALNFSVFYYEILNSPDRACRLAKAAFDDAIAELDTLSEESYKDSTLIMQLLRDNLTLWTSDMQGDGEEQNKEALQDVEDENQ

14-3-3γ (full length) = biological target: T2, 14-3-3γ (full length) (human, UniProt P61981 1-247)
T2 construct: 14-3-3 protein gamma, human, full length; Expressed from a pPRoeX-Htb vector; also called 14-3-3 isoform γ; source: E. coli NiCo21(DE3), purified (nickel column, TEV cleavage, second nickel column, SEC)
T2 sequence (looked up): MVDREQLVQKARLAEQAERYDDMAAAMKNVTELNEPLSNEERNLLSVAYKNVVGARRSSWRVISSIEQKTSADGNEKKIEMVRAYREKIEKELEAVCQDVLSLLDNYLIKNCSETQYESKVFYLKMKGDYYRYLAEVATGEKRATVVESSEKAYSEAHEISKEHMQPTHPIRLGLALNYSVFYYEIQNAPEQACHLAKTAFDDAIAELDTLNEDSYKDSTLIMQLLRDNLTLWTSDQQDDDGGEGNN

14-3-3ζ (full length) = biological target: T3, 14-3-3ζ (full length) (human, UniProt P63104 1-245)
T3 construct: 14-3-3 protein zeta/delta, human, full length; Expressed from a pPRoeX-Htb vector; also called 14-3-3 isoform ζ; source: E. coli NiCo21(DE3), purified (nickel column, TEV cleavage, second nickel column, SEC)
T3 sequence (looked up): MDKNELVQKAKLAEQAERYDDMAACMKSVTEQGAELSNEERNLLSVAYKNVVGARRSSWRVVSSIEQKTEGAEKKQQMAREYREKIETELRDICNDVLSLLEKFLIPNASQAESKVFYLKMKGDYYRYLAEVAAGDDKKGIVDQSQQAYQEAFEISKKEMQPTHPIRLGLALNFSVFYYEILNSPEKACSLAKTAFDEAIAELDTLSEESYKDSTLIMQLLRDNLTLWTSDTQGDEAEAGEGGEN

14-3-3η (full length) = biological target: T4, 14-3-3η (full length) (human, UniProt Q04917 1-246)
T4 construct: 14-3-3 protein eta, human, full length; Expressed from a pPRoeX-Htb vector; also called 14-3-3 isoform η; source: E. coli NiCo21(DE3), purified (nickel column, TEV cleavage, second nickel column, SEC)
T4 sequence (looked up): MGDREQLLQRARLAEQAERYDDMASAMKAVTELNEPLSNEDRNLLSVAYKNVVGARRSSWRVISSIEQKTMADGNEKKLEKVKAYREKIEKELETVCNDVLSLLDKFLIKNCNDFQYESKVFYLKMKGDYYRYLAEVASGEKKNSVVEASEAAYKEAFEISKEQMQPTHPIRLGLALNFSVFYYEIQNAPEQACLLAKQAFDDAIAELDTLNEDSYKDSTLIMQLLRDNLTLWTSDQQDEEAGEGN

14-3-3β (full length) = biological target: T5, 14-3-3β (full length) (human, UniProt P31946 1-246)
T5 construct: 14-3-3 protein beta/alpha, human, full length; Expressed from a pPRoeX-Htb vector; also called 14-3-3 isoform β; source: E. coli NiCo21(DE3), purified (nickel column, TEV cleavage, second nickel column, SEC)
T5 sequence (looked up): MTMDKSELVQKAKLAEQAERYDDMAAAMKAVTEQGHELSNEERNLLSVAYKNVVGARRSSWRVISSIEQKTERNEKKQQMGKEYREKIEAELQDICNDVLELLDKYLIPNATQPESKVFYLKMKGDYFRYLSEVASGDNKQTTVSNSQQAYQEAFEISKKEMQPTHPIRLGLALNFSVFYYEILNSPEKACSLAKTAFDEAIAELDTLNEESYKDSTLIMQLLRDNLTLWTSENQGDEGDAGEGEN

14-3-3τ (full length) = biological target: T6, 14-3-3τ (full length) (human, UniProt P27348 1-245)
T6 construct: 14-3-3 protein theta (tau), human, full length; Expressed from a pPRoeX-Htb vector; also called 14-3-3 isoform τ; source: E. coli NiCo21(DE3), purified (nickel column, TEV cleavage, second nickel column, SEC)
T6 sequence (looked up): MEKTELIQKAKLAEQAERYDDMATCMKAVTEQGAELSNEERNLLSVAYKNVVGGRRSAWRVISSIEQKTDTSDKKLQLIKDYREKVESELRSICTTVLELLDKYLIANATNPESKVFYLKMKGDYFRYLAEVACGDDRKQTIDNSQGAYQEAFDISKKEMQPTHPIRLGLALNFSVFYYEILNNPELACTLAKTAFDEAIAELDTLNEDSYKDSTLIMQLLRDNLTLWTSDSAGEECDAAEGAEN

binding result (14-3-3ɛ (full length)): binds
Kd (14-3-3γ (full length)): 780 ± 50 nM
binding result (14-3-3ζ (full length)): binds
Kd (14-3-3η (full length)): 690 ± 60 nM
binding result (14-3-3β (full length)): binds
binding result (14-3-3τ (full length)): binds
B1: SHN3pS542 peptide, N-terminally FITC-Ahx-labelled (peptide)
peptide: {FITC-Ahx}-LLRSH[pS]MPSAAC
modifications: also: phosphoserine at 542, position not mapped
notes: Schnurri-3 (SHN3, transcription factor HIVEP3), human, 12-mer around phosphorylated Ser542; also called SHN3pS542-FITC; the FITC-labelled form; source: synthetic peptide, bought: GenScript (purity >95%)
